Patent publication US7285618 (JAPAN TOBACCO, dated 2007)

Biological target: G protein (Gi) purified from rabbit liver (rabbit)
Experiment: cell-based or functional assay

## LSFLIPAGWVLSHLDHYKRSSAA [cytochrome C oxidase subunit peptide-1 (COSP-1)]
  GTPase activity of Gi: ~6 fold
